This note sets out measurements from patent US20080227704A1 (published 2008).

Broadly, the kon is a measure of how fast the partners come together. By EC50 is commonly meant the concentration needed to bring the measured effect to its halfway point. As usually defined, the Kd is the equilibrium constant for the complex coming apart. The koff is a measure of how fast the partners let go of each other.

Assay [1] has as its target T1, recombinant purified mouse CXCL13 (mouse, UniProt O55038 22-109, biotinylated in the ELISA of Example 1.1.A.1 (sites not given); unlabelled in Biacore).
T1 sequence: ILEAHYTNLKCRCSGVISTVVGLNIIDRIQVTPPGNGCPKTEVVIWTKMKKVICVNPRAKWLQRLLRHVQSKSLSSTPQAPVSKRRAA
Nature of the assay: cell-based or functional assay.

The target of assay [2] is T1, recombinant purified mouse CXCL13. Nature of the assay: SPR (Biacore), antibody captured by goat anti-mouse IgG Fc, mouse CXCL13 injected at 0.78-50 nM, 25 C. The protocol: Binding of antibodies to recombinant purified mouse CXCL13 were determined by surface plasmon resonance-based measurements with a Biacore® 2000 and 3000 instruments (Biacore® AB, Uppsala, Sweden) using running HBS-EP (10 mM HEPES pH 7.4, 150 mM NaCl, 3 mM EDTA, and 0.015% surfactant P20) at 25° C. Experimental data from all kinetic rate determinations of the antibody-antigen reaction were analyzed using Biaevaluation software version 4.0.1.
Mouse Anti Mouse CXCL13 antibodies to be captured as a ligand on the carboxymethyl dextran matrix were diluted in HBS-EP with 0.015% P20 at a concentration of 5-μg/mL. 50-100 μL aliquots were injected over the covalently coupled goat anti-mouse IgG Fc polyclonal antibody biosensor matrices at a flow rate of 25-50 μL/min. The net difference in the baseline signal and the signal after the completion of antibody injection was taken to represent the amount of bound Mouse Anti Mouse CXL13 antibody. Biosensor matrices were typically regenerated with subsequent 25 μL injections of 10 mM Glycine (pH 1.5) before the injection of the next sample. Glycine treatment disrupts the association of non-covalently bound proteins thus Anti CXCL13 antibody-mouse CXCL13 complex dissociates and washes off. The anti-mouse IgG antibody immobilized surfaces were completely regenerated. Aliquots of mouse CXCL13 antigen were injected at a flow rate of 25-50 μL/min over Anti CXCL13 purified monoclonal antibodies captured on the biosensor chips. The concentrations of mouse CXCL13 was ranging between 0.78-50 nM. HBS-EP with 0.015% P20 was flowed through each flow cell in between various cycles of antigens and also immediately before and after the end of kinetic analysis. The signal stabilized 120-180 seconds after the completion of the injection cycle. The net difference in signal between the baseline and the point corresponding to approximately 30 seconds after the completion of antigen injections was taken to represent the amount of antigen bound. The response was measured in resonance units (RU) representing the mass of bound CXCL13 antigen. CXCL13 antigen was also simultaneously injected over the goat anti mouse IgG Fc or goat IgG reference and reaction CM4 surface to record any nonspecific binding background.

The target is the same in assay [3]. Nature of the assay: ELISA, antibody captured by goat anti-mouse IgG Fc, biotinylated mouse CXCL13 detected with streptavidin-HRP. The method, then: ELISA plates (Corning Costar, Acton, Mass.) were coated with 50 μL/well of 5 μg/ml goat anti-mouse IgG Fc specific (Pierce # 31170, Rockford, Ill.) in Phosphate Buffered Saline (PBS) overnight at 4 degrees Celsius. Plates were washed once with PBS containing 0.05% Tween-20. Plates were blocked by addition of 200 μL/well blocking solution diluted to 2% in PBS (BioRad #170-6404, Hercules, Calif.) for 1 hour at room temperature. Plates were washed once after blocking with PBS containing 0.05% Tween-20.
Fifty microliters per well of mouse sera or hybridoma supernatants diluted in PBS containing 0.1% Bovine Serum Albumin (BSA) (Sigma, St. Louis, Mo.) was added to the ELISA plate prepared as described above and incubated for 1 hour at room temperature. Wells were washed three times with PBS containing 0.05% Tween-20. Fifty microliters of biotinylated recombinant purified mouse CXCL13 diluted to 100 ng/mL in PBS containing 0.1% BSA was added to each well and incubated for 1 hour at room temperature. Plates were washed 3 times with PBS containing 0.05% Tween-20. Streptavidin HRP (Pierce # 21126, Rockland, Ill.) was diluted 1:20000 in PBS containing 0.1% BSA; 50 μL/well was added and the plates incubated for 1 hour at room temperature. Plates were washed 3 times with PBS containing 0.05% Tween-20. Fifty microliters of TMB solution (Sigma # T0440, St. Louis, Mo.) was added to each well and incubated for 10 minutes at room temperature. The reaction was stopped by addition of 1N sulphuric acid. Plates were read spectrophotmetrically at a wavelength of 450 nm.
A general note: ELISA stands for enzyme-linked immunosorbent assay.

B1: XW25-5D11-4F3-3D11 (antibody, V domains shown)
VH: EVQVQQSGAELVRPGSSVKMSCKTSGYTFTNYGIIWVKQRPGQGLEWIGYIYIGKGYTEYNEKFKGKATLTSDTSSSTVYMQLSSLTSEDSAIYFCARGAHYYGNAMDYWDQGTSVTVSS
VL: DIQMTQTTSSLSASLGDRVTISCRSSQDISNFLNWYQQRPDGTVKLLIYYTSRLHSGVPSRFSGSGSGTDYSLTISNLEQEDIATYFCQQGDTLPWTFGGGTKLEIKR
notes: Mouse anti-mouse CXCL13 monoclonal antibody purified from hybridoma
As to B1, the “Average Kb (nM) Chemotaxis Assay” value in assay [1] stood at 18.9 nM. In assay [2], the kon stood at 1e+06 M⁻¹ s⁻¹. In addition, the EC50 in assay [3] was 0.03 nM.

B2: XW25-2C4-4H8 (antibody, V domains shown)
VH: QVQLQQPGTELVKPGASVKLSCKASGYNFATYWMHWVKQRPGQGLEWIGNINPSDGGTNFNEKFNNKATLTVDKSSSTAYMQLSSLTSEDSAVYYCAKWGGHYVLYWYFDVWGTGTTVTVSS
VL: DIVLTQSPATLSVTPGDSVSLSCRASQSISSNLHWYQQKSHESPRLLITYASQSISGIPSRFSGSGSGTDFTLSINSVESEDVGVYFCQQSDSWPLTFGAGTKLELKR
notes: as for B1
Take B2: the “Average Kb (nM) Chemotaxis Assay” value in assay [1] came out at 23 nM. Further, in assay [2], the Kd was 0.013 nM, the koff was found to be 3.6e-05 s⁻¹ and the association rate constant (kon) amounted to 2.7e+06 M⁻¹ s⁻¹. In addition, the EC50 in assay [3] is 0.02 nM.

B3: XW25-3B5-3F4 (antibody, V domains shown)
VH: QVQLQQPGTELVKPGTSVKLSCKASGYTFTSYWMHWVKQRPGQGLEWIGNINPSDGGIKYNEKFKSKATLTVDKSSSTAYMELSSLTSEDSAVYYCAKWGGHYVLYWYFDVWGTGTTVTVSS
VL: DIVLTQSPATLSVTPGDSVSLSCRASQSISNNLHWYQQKSHESPRLLINYASQSISGIPSRFSGSGSGTDFTLSINSVETEDFGMYFCQQSNSWPLTFGAGTKLELKR
notes: Mouse anti-mouse CXCL13 monoclonal antibody from hybridoma
For B3, the EC50 in assay [3] worked out at 0.04 nM.

B4: XW25-6A2-2F10 (antibody, V domains shown)
VH: QVQLQQPGTELVKPGASVKLSCKASGYNFATYWVHWVKQRPGQGLEWIGNINPSDGGTSYNEKFSKKATLTVDKSSSTAYMELSSLTSEDSAVYYCAKWGGHYVLYWSFDVWGTGTTVTVSS
VL: DIVLTQSPATLSVTPGDSVSLSCRASQSISNNLHWYQQRSHESPRLIITHVSQSISGIPSRFSGSGSGTDFIFSINSVESEDFGVYFCQQSNSWPLTFGAGTKLELKR
notes: as for B1
In the case of B4, in assay [1], the “Average Kb (nM) Chemotaxis Assay” value was found to be 8.12 nM. In addition, in assay [2], the Kd came out at 0.002 nM, the koff is 2.7e-06 s⁻¹ and the kon came out at 1.6e+06 M⁻¹ s⁻¹. For the same molecule, the concentration for a half-maximal effect (EC50) in assay [3] amounted to 0.02 nM.

B5: XW25-9C10-4B11 (antibody, V domains shown)
VH: QVQLQQPGTELVKPGASVKLSCKASGYNFATYWMHWVKQRPGQGLEWIGNINPSDGGTNFNEKFNSKATLTVDKSSSTAYMQLSSLTSEDSAVYYCAKWGGHYVLYWYFDVWGTGTTVTVSS
VL: DIVLTQSPATLSVTPGDSVSLSCRASQSISSNLHWYQQKSHESPRLLITYASQSISGIPSRFSGSGSGTDFTLSINSVESEDVGVYFCQQSDSWPLTFGAGTKLELKR
notes: as for B3
B5: the EC50 in assay [3] was found to be 0.01 nM.

B6: XW25-7C7-5E5 (antibody, V domains shown)
VH: QVQLQQPGTELVKPGASVKLSCKASGYNFATYWMHWVKQRPGQGLEWIGNINPSDGGTNFNEKFNNKATLTVDKSSSTAYMHLSSLTSEDSAVYYCAKWGGHYVLYWYFDVWGTGTTVTVSS
VL: DIVLTQSPATLSVTPGDSVSLSCRASQNINNNLHWYQQKSHESPRLLITYTSQSISGIPSRFSGSGSGTDFTLSINSVESEDVGVYFCQQSDSWPLTFGAGTKLELKR
notes: as for B3
On to B6, for which the EC50 in assay [3] stood at 0.02 nM.

B7: XW25-8H6-4F9 (antibody, V domains shown)
VH: QVQLQQPGTELVKPGASVKLSCKASGYNFATYWMHWVKQRPGQGLEWIGNINPSDGGTNYNEKFNNKATLTVDKSSSTAYMQLSSLTSEDSAVYYCAKWGGHYVLYWYFDVWGTGTTVTVSS
VL: DIVLTQSPATLSVTPGDSVSLSCRASQSINNNLHWYQQESHESPRLLITYASQSISGIPSRFSGSGSGTDFTLSINSVESEDFGVYFCQQSNSWPLTFGAGTKLELKR
notes: as for B3
For B7, the 50% effective concentration (EC50) in assay [3] turned out to be 0.03 nM.

B8: XW25-4F2-5D2 (antibody, V domains shown)
VH: QVQLQQPGTELVKPGASVKLSCKASGYNFPTYWMHWVKQRPGQGLEWIGNINPSDGGTNFNEKFNNKATLTVDKSSSTAYMQLSSLTSEDSAVYYCAKWGGHYVLYWYFDVWGTGTTVTVSS
VL: DIVLTQSPATLSVTPGDSVSLSCRASQSISNNLHWYQQKSHESPRLLITYASQSISGIPSRFSGSGSGTDFTLSINSVESEDVGVYFCQQSDSWPLTFGAGTKLELKR
notes: as for B3
Take B8: the “Average Kb (nM) Chemotaxis Assay” value in assay [1] stood at 16 nM. Also, the EC50 in assay [3] stood at 0.02 nM.
